Efficiency of disulfide formation data for one substance are collected here from PMC4305291.

The assay has as its target integrin αIIb_W968C (human). The assay is described as follows: cross-linking; disulfide between engineered cysteines in cells; S35-labelled CHO cells lysed, immunoprecipitated with anti-αIIb mAb 10E5 and protein G-Sepharose, SDS-PAGE with or without 2 mM DTT, radioautography.

For “integrin β3_I693C (from UniProt P05106 27-788) (natural protein)”, the efficiency of disulfide formation is 100%.
